# Experimental data published in the supplement of paper PMC12338614.
# ± gives the uncertainty stated by the source.
# B1: library; numbered along this chain (parent)
# chain: MEVVDPQQLGMFTEGELMSVGMDTFIHRIDSTEVIYQPRRKRAKLIGKYLMGDLLGEGSYGKVKEVLDSETLCRRAVKILKKKKLRRIPNGEANVKKEIQLLRRLRHKNVIQLVDVLYNEEKQKMYMVMEYCVCGMQEMLDSVPEKRFPVCQAHGYFCQLIDGLEYLHSQGIVHKDIKPGNLLLTTGGTLKISDLGVAEALHPFAADDTCRTSQGSPAFQPPEIANGLDTFSGFKVDIWSAGVTLYNITTGLYPFEGDNIYKLFENIGKGSYAIPGDCGPPLSDLLKGMLEYEPAKRFSIRQIRQHSWFRKKHPPAEAPVPIPPSPDTKDRWRSMTVVPYLEDLHGADEDEDLFDIEDDIIYTQDFTVPGQVPEEEASHNGQRRGLPKAVCMNGTEAAQLSTKSRAEGRAPNPARKACSASSKIRRLSACKQQ
# Variants of: B1
# Experiment: STK11 functional score (HeLa growth suppression), rescaled enrichment; synonymous median = 1, nonsense median = 0 (normalised score)
# Settings: with HeLa; variant type: missense
# Procedure, shortened: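 Functional scores are post/pre-selection log ratios corrected to wild type, rescaled to synonymous and nonsense medians, merged over codons and replicate transfections, and given bootstrapped error. They come from POPCode libraries of codon-optimised STK11 integrated by Bxb1 at an AAVS1 landing pad in HeLa, three regions each transfected three times, with BFP-negative, mCherry-positive integrants sorted by FACS and tiled gDNA amplicons sequenced on NextSeq.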
row,Variant,STK11 functional score
1,D365R,1.61 ± 0.14
2,D365C,1.51 ± 0.17
3,G58V,-0.308 ± 0.081
4,A205H,1.33 ± 0.13
5,W239P,-0.0966 ± 0.095
6,K311R,1.43 ± 0.24
7,R333S,1.55 ± 0.2
8,G171V,1.25 ± 0.26
9,T186V,1.24 ± 0.38
10,Y49Q,0.0367 ± 0.35
11,K96V,0.667 ± 0.17
12,T395P,1.32 ± 0.53
13,V368C,1.58 ± 0.18
14,T244R,0.00573 ± 0.1
15,D359G,1.36 ± 0.2
16,E349N,1.48 ± 0.19
17,E349M,1.33 ± 0.32
18,T367W,1.4 ± 0.32
19,P413L,1.31 ± 0.13
20,D68A,0.846 ± 0.48
21,D68G,1.08 ± 0.45

row,Variant,STK11 functional score
1,G227T,1.67 ± 0.13
2,S216I,0.119 ± 0.093
3,V133D,1.53 ± 0.15
4,K62R,1.61 ± 0.36
5,K62L,1.35 ± 0.21
6,G394F,1.17 ± 0.11
7,S334A,0.943 ± 0.21
8,S334M,1.05 ± 0.17
9,V143N,1.68 ± 0.4
10,V143S,1.44 ± 0.36
11,L245T,-0.038 ± 0.1
12,L245V,0.345 ± 0.093
13,Y272E,1.28 ± 0.18
14,Y272C,1.13 ± 0.71
15,G251E,0.412 ± 0.098
16,Y118W,0.378 ± 0.09
17,T336C,1.27 ± 0.34
18,A206Q,1.07 ± 0.092
19,P321G,1.01 ± 0.14
20,E357V,1.33 ± 0.25
21,V4I,1.43 ± 0.16

row,Variant,STK11 functional score
1,V4L,0.909 ± 0.33
2,G56W,-0.159 ± 0.14
3,A43M,1.57 ± 0.33
4,Q123D,0.981 ± 0.62
5,C278W,0.795 ± 0.1
6,E130F,0.993 ± 0.35
7,C132Y,0.597 ± 0.082
8,K423C,1.58 ± 0.16
9,G288C,0.989 ± 0.45
10,Q137S,1.42 ± 0.23
11,P369Q,1.43 ± 0.23
12,C158W,0.384 ± 0.11
13,D284R,1.55 ± 0.36
14,K78F,0.0316 ± 0.078
15,K403Y,1.59 ± 0.21
16,M129C,1.26 ± 0.13
17,D355S,1.48 ± 0.18
18,L117P,0.386 ± 0.24
19,V372W,1.09 ± 0.29
20,Y292L,0.546 ± 0.15
21,T363Q,1.52 ± 0.15

row,Variant,STK11 functional score
1,D277M,0.115 ± 0.11
2,D277A,0.843 ± 0.41
3,L386T,1.6 ± 0.29
4,T402D,1.21 ± 0.39
5,K175L,1.11 ± 0.18
6,I35S,1.49 ± 0.2
7,I35T,1.34 ± 0.71
8,P294M,1.13 ± 0.4
9,P294H,0.973 ± 0.64
10,P294Q,1.39 ± 0.23
11,F204W,1.3 ± 0.13
12,V197G,0.372 ± 0.21
13,E65N,1.06 ± 0.14
14,E65D,1.34 ± 0.37
15,N412T,1.09 ± 0.53
16,G270L,0.945 ± 0.13
17,G346D,0.435 ± 0.27
18,P222W,0.686 ± 0.36
19,S142Y,1.13 ± 0.24
20,S419D,1.1 ± 0.4
21,I238R,-0.17 ± 0.18
